The target in this test is T1, purified human MIB1 protein (human, UniProt Q86YT6 1-1006).
T1 construct: MIB1, human; source: E. coli BL21 (DE3), pET28a-sumo, purified (AKTA pure chromatography)
The test is described as follows: SPR; Biacore T200, CM5 chip, amine coupling in 10 mM sodium acetate pH 4.0 to 5000 RU, 25 °C, running buffer PBS, 0.05% Tween-20, 1% DMSO; multicycle kinetics, 1:1 Langmuir fit; which of the two proteins was immobilised is not stated. Conditions: both partners purified. (In SPR one partner is held on a chip, and binding of the other changes the refractive index at the surface.)

T1 sequence (Q86YT6 whole entry): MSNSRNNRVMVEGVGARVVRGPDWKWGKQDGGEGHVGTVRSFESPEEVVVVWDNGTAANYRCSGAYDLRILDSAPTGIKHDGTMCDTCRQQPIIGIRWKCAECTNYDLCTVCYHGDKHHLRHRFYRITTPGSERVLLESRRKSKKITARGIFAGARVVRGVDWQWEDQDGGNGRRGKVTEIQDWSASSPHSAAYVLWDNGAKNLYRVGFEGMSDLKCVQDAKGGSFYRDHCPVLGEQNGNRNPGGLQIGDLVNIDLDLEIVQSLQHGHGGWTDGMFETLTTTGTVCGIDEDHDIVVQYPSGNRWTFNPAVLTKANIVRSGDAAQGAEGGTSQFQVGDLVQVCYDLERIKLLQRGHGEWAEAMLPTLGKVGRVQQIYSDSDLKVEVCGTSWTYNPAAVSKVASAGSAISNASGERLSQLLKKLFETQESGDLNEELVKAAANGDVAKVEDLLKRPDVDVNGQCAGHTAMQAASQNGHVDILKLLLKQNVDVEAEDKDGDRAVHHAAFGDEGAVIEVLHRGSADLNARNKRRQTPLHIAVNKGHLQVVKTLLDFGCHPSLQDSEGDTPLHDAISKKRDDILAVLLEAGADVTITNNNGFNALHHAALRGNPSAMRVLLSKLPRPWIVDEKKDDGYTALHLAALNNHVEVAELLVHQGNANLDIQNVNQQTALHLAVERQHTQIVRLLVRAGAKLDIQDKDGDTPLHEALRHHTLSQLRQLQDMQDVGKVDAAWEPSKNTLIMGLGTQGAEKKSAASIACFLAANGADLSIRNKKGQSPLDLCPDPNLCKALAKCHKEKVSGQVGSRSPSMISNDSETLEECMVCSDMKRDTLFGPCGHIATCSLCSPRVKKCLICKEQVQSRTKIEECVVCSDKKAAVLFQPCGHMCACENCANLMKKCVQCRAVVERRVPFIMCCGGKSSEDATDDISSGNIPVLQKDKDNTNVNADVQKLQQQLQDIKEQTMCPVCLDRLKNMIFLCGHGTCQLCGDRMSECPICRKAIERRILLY

B1: purified human BLM-K24R protein (natural protein)
chain: not shown
notes: BLM, human, K24R; also called K24R BLM; BLM-K24R mutant; source: E. coli BL21 (DE3), pET28a-sumo, purified (AKTA pure chromatography)
What is called Kd is the concentration at which binding is half-saturated. Read a high Kd as lower affinity. B1 came in with a Kd of 26.8 nM.

B2: purified human BLM-WT protein (natural protein)
chain: not shown
notes: BLM, human; also called WT BLM; source: E. coli BL21 (DE3), pET28a-sumo, purified (AKTA pure chromatography)
Molecule B2 yielded a Kd of 121 nM.

The values above are taken from publication PMC12241633, “Irinotecan alleviates chemoresistance to anthracyclines through the inhibition of AARS1-mediated BLM lactylation and homologous recombination repair” (Signal Transduction and Targeted Therapy, 2025).
